In assay [1] the target is T1, mouse CLDN-5 protein (mouse, UniProt O54942 1-218).
T1 construct: Expressed on cells by retrovirus; also called mCLDN-5; MDCKII/mCLDN-5
T1 sequence: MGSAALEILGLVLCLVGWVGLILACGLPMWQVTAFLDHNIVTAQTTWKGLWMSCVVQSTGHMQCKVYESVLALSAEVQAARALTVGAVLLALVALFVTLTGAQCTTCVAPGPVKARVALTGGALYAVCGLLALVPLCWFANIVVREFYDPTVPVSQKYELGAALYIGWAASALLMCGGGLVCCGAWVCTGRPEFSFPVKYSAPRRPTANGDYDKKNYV
As to the kind of experiment: FACS, hybridoma supernatant on CLDN-expressing cells. An excerpt: (§1) By the insertion of a DNA fragment consisting of an hCLDN-1 protein (SEQ ID NO: 30)-encoding sequence, an hCLDN-2 protein (SEQ ID NO: 31)-encoding sequence, an hCLDN-3 protein (SEQ ID NO 32)-encoding sequence, an hCLDN-4 protein (SEQ ID NO: 33)-encoding sequence, an hCLDN-6 protein (SEQ ID NO: 34)-encoding sequence, an hCLDN-7 protein (SEQ ID NO: 35)-encoding sequence, an mCLDN-1 protein (SEQ ID NO: 37)-encoding sequence, an mCLDN-2 protein (SEQ ID NO: 38)-encoding sequence, an mCLDN-3 protein (SEQ ID NO: 39)—encoding sequence, or an mCLDN-5 protein (SEQ ID NO: 29)-encoding sequence, vectors for preparing a retrovirus were obtained. By using these vectors and the vector for preparing a retrovirus prepared in Example 1-2), various CLDN protein-expressing cells were prepared. By using these cells and a culture supernatant of hybridomas producing antibodies as primary antibodies, FACS assay was performed by the following method.
(§2) The obtained CLDN-expressing cells were seeded in a 10 cm dish, and on the next day, the cells were collected. The primary antibodies (100 μL) were added to the obtained 1.0×10⁵ cells and allowed to react for 1 hour at 4° C. At this time, a mixed solution of a C-CPE mutant (C-CPEmt) and a mouse anti-His tag antibody (Abeam) used in Non-Patent Literature 3 was used as positive control. The cells were washed three times with 0.2% BSA-PBS, then mixed with 100 μL of a secondary antibody solution (FITC conjugated goat anti-mouse IgG or anti-rat IgG (Jackson Immune Research, 115-095-003 or 112-095-003) 400x diluted with 1% BSA-PBS, and allowed to react for 1 hour at 4° C. The cells were washed with 0.2% BSA-TBS and then analyzed using FACS caliber (BD Bioscience).
(In flow cytometry, cells or beads pass a laser one at a time.)

Assay [2] addresses T2, mCLDN-1 protein (mouse, UniProt O88551 1-211).
T2 construct: Expressed on cells by retrovirus; also called mouse Claudin-1 protein
T2 sequence: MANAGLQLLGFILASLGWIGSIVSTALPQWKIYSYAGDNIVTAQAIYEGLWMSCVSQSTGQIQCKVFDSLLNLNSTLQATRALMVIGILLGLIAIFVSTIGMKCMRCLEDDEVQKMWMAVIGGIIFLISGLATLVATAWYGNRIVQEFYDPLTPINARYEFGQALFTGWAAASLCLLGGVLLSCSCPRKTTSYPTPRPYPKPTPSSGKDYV
The description is as above.
Text: as §1, §2

The target of assay [3] is T3, wild-type human CLDN-5 protein (human, UniProt O00501 1-218).
T3 construct: Four-transmembrane tight junction protein expressed by retrovirus on HT-1080 (or MDCKII) cells; also called hCLDN-5; human Claudin-5 protein
T3 sequence: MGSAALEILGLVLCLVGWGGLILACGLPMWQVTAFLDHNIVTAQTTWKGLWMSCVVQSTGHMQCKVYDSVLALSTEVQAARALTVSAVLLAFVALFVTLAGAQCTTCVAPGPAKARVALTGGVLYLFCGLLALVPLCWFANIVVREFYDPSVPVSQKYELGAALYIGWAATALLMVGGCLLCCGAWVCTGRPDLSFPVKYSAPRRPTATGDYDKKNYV
Described as above.
Text: as §1, §2

Assay [4] concerns the target T4, mCLDN-3 protein (mouse, UniProt Q9Z0G9 1-219).
T4 construct: Expressed on cells by retrovirus; also called mouse Claudin-3 protein
T4 sequence: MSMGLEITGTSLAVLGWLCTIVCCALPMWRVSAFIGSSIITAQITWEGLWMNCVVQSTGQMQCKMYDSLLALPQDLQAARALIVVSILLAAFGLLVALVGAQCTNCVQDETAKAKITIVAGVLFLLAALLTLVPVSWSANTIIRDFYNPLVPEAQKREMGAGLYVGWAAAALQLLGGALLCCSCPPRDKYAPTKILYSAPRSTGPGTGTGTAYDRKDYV
The assay is described as above.
Text: as §1, §2

Assay [5] has as its target T5, mCLDN-2 protein (mouse, UniProt O88552 1-230).
T5 construct: Expressed on cells by retrovirus; also called mouse Claudin-2 protein
T5 sequence: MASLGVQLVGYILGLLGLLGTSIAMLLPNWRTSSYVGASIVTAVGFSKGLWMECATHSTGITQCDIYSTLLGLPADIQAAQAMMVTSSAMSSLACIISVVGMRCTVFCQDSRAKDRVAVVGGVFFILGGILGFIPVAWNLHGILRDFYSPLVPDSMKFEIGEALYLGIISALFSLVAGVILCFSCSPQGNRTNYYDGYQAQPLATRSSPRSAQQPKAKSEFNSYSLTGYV
Described as above.
Text: as §1, §2

In assay [6] the target is T6, crab-eating macaque CLDN-5 protein (crab-eating macaque, UniProt O00501 1-218 (human entry)).
T6 construct: Expressed on cells by retrovirus; also called cCLDN-5; MDCKII/cCLDN-5
T6 chain: T3 sequence with S86G, F127L, C179G, G190S
As to the kind of experiment: FACS on CLDN-5-expressing cells, antibody 5 µg/mL. The procedure:
as §2
In the same manner as in Example 1-2), a DNA fragment consisting of a cCLDN-5 protein (SEQ ID NO: 28)-encoding sequence or an mCLDN-5 protein (SEQ ID NO: 29)-encoding sequence was inserted into a pCX4pur vector, thereby obtaining vectors for preparing a retrovirus. By using these vectors with the vector for preparing a retrovirus prepared in Example 1-2), various animal species CLDN-5 protein-expressing cells were prepared. By using these cells and the antibodies (antibody concentration: 5 μg/mL, as primary antibody), FACS assay was performed in the same manner as in 3-1).

Assay [7] concerns the target T3, wild-type human CLDN-5 protein. In words: FACS saturation binding on HT-1080/hCLDN-5, one-site fit; Lot 2. The method, then:
as §2
(§3) By using HT-1080/hCLDN-5 and 100 μL of the anti-CLDN-5 antibody at each concentration diluted with 1.0% BSA-PBS, FACS assay was performed in the same manner as in Example 3-1). […] At this time, the equation of saturation binding-one site-specific binding of Graph Pad prism 7 (Graph Pad Software) was used.

Assay [8] shares this target. As to the kind of experiment: FACS saturation binding on HT-1080/hCLDN-5, one-site fit; Lot 1. The method, then:
as §2, §3

Positions count from the first letter of the chain named.

B1: rat anti-CLDN-5 antibody R8 (antibody, rat IgG2b, V domains shown)
VH: VKVVESGGGLVQPGRSMKLSCAASGFTFSDYFMAWVRQSPKKGLEWVASINYGGSRTYYEDSVKGRFTISRDNAKSTLYLQMNSLRSEDTATYYCARHPHRLFDYWGQGVMVTVSS
VL: DIVMTQSPSFLAVSVGETVTINCKSSQSFLSSGNQENYLAWYQQKPGQSPKLLIHLASTRESGVPDRFIGSGSGTDFTLTISSMQAEDVAIYYCQQHYDIPYTFGAGTKLEL
notes: Hybridoma monoclonal; also called antibody H
For B1, the binding result in assay [1] is reported as “no binding”; in assay [2], “no binding”; in assay [3] it was “binds”; in assay [4], “no binding”; in assay [5], “no binding”; in assay [6], “binds”.

B2: mouse anti-CLDN-5 antibody M23 (antibody, mouse IgG2b, V domains shown)
VH: EVQLQQSGPVLVKPGPSVMISCKASGFTFTDYYMHWVKQSHGKSLEWIGLVYPYNGGTDYNQKFKGKATLTVDTSSSTAYMELNSLTSEDSAVYYCARCLYDGLYFYAMDYWGQGTSVTVSS
VL: DIVMSQSPSSLAVSAGEKVTMTCKSSQSLLNSRARKNYLAWYQQKAGQSPKLLMYWASTRESGVPDRFTASGSGTDFTLTISSVQAEDLAVFYCKQSYNLPWTFGGGTKLEIKR
notes: Hybridoma monoclonal; also called antibody C
One may read the Kd as a measure of binding affinity in units of concentration. Regarding B2, the Kd in assay [7] was found to be 2.78 nM; in assay [8], 3.77 nM. For the same molecule, the binding result is on record as “no binding” in assay [1]; “no binding” in assay [2]; “no binding” in assay [4]; “no binding” in assay [5]; “binds” in assay [6].

B3: rat anti-CLDN-5 antibody R28 (antibody, rat IgG2a, V domains shown)
VH: EVQLVESGGGLVQPGRSLKLSCAASGFTFSDYFMAWVRQAPKKGLEWVASINYEGSRTYYGDSVKDRFTISRDNTKTTLYLQMTSLRSEDTATYYCARHPRRYFDFWGQGVMVTVSS
VL: DIVMTQSPSSLAVSAGETVTINCKSSRSLFSSGYQENYLAWYQQKPGQSPKMLIYLASTRESGVPDRFIGSGSGTDFTLTINTLQAEDLAIYYCQQHYDIPYTFGAGTKLEL
notes: Hybridoma monoclonal; also called antibody M
Regarding B3, the binding result is “no binding” in assay [1]; “no binding” in assay [2]; “binds” in assay [3]; “no binding” in assay [4]; “no binding” in assay [5]; “binds” in assay [6].

B4: mouse anti-CLDN-5 antibody M29 (antibody, mouse IgG3, V domains shown)
VH: EVQLVESGGGLVQPKGSLKLSCAASGFTFNIYAMHWVRQAPGKGLEWVARIRSKSSNYATYYVDSVKDRFIISRDDSQSMLYLQVNNLKTEDTAMYYCVREGNWDCFDYWGQGTTLTVSS
VL: DIVMSQSPSSLPVSVGQKVTMTCKSSQSLLYTSNQKNYLAWYQQKPGQSPKLLIYWASTRESGVPDRFTGSGSGTDFTLTISSVKAEDLAIYYCQQYYRYHTFGGGTRLEIK
notes: Hybridoma monoclonal; also called antibody D
For B4, the binding result in assay [1] is “no binding”; in assay [2] it was “no binding”; in assay [3], “binds”; in assay [4] it was “no binding”; in assay [5], “no binding”; in assay [6], “binds”.

B5: rat anti-CLDN-5 antibody R11 (antibody, rat IgG2b, V domains shown)
VH: EVQLVESGGGLVQPGRSRKLSCAASGFTFNNYGMAWVRQAPTKGLEWVASITNSGYTTYYRDSVKGRFTISRDNAKNALYLQMDSLRSEDTATYYCTTGGYGGYFPLFDYWGHGVMVTVSS
VL: DVVMTQTPVSLSVSLGGQTSISCRSSQSLFHSDGNTYLYWYLRKPGQSPQLLIYKVSNRFSGVPDRFSGSGSGTDFTLKISRVEPEDLGLYYCYQGTHYPPTFGSGTKLEI
notes: Hybridoma monoclonal; also called antibody J
Regarding B5, the binding result in assay [1] was “no binding”; in assay [2], “no binding”; in assay [3], “binds”; in assay [4], “no binding”; in assay [5] it was “no binding”; in assay [6], “binds”.

B6: rat anti-CLDN-5 antibody R20 (antibody, rat IgG2a, V domains shown)
VH: EVQLVESGGGLVQPGRSMKLSCAVSGFTFSDYYMAWVRQAPKKGLEWVASISYEGRNTYYGDSVKGRFTISRDNAKNTLYLQMNSLRSEDTATYYCARHPRRYFDFWGPGTMVTVSS
VL: DIVMTQSPSSLAVSAGETVTINCKSSQSLLFSGDQENHLAWYQQKAGQSAKLLIYWASTRESGVPDRFIGSGSGADFTLTISSMQAEDRATYYCQQNYDIPYTFGAGTKLEL
notes: Hybridoma monoclonal; also called antibody L
Take B6: the binding result in assay [1] is reported as “no binding”; in assay [2] it was “no binding”; in assay [3], “binds”; in assay [4], “no binding”; in assay [5], “no binding”; in assay [6] it was “binds”.
